Test results from patent US12534748B2, “Engineered beta-subunit of tryptophan synthase for production of non-canonical amino acids” (California Institute of Technology, priority 2015, dated 2026).
Where a chain is given by its changes, count along the chain named. Numbers in names are those of the source.

Key:
[1] = substrate: c1ccc2[nH]ccc2c1; experiment: Tryptophan formation from L-serine and indole, kinetics of EcTrpB double mutant; type: biochemical, Escherichia coli; details: other: 37° C., pH 8.0
Method: (§1) Kinetics and UV-Vis Spectroscopy. Data were collected between 550 and 250 nm on a UV1800 Shimadzu spectrophotometer (Shimadzu) using 0.25-20 μM of enzyme in 200 mM potassium phosphate (pH 8.0) in a quartz cuvette. […] PfTrpB activity (kcat) was measured by monitoring tryptophan formation at 290 nm using Δe290=1.89 mM^−1·cm^−1.
(§2) Cloning, expression, and purification of the different orthologs. The genes encoding AfTrpB (UNIPROT ID O28672), TmTrpB (UNIPROT ID P50909) and EcTrpB (UNIPROT ID P0A879) were obtained from IDT and cloned into pET22(b)+ using Gibson Assembly. Protein expression was carried out in E. coli BL21 E. cloni Express cells (Lucigen) by inoculating 10-mL Terrific Broth (with 100 μg/mL ampicillin (TBamp)) with a single colony and incubated over night at 37° C. and 250 rpm. These overnight cultures were used to scale up to 500-mL TBamp expression cultures, which were grown by shaking at 250 rpm and 37° C. for ˜3 h or until an OD600 of 0.8 was reached. Then, after chilling the cultures on ice for 20 min, induction was conducted by the addition of IPTG to a final concentration of 1 mM. Induced cultures were allowed to grow at 250 rpm and 20° C. for another 20 h. After centrifugation, pelleted cells were frozen and stored at −20° C. until further use. […]

[2] = substrate: c1ccc2[nH]ccc2c1; experiment: Tryptophan formation from L-serine and indole, kinetics of wild-type AfTrpB; type: biochemical, Archaeoglobus fulgidus; details: other: 60° C., pH 8.0
Method: as §1
as §2, with “reached.” for “reached. Then, after chilling the cultures on ice for 20 min, induction was conducted by the addition of IPTG to a final concentration of 1 mM. Induced cultures were allowed to grow at 250 rpm and 20° C. for another 20 h. After centrifugation, pelleted cells were frozen and stored at −20° C. until further use.”
The three TrpB homologs and their corresponding 0B2 variants were expressed and purified, and then their kinetic properties (kcat and KM of indole) were measured. […] The UV-vis spectra of the enzymes was recorded before and after adding L-serine, relying on the diagnostic spectrum of the PLP cofactor to report the steady state population of the catalytic intermediates.

[3] = substrate: c1ccc2[nH]ccc2c1; experiment: Tryptophan formation from L-serine and indole, kinetics of AfTrpB double mutant; type: biochemical, Archaeoglobus fulgidus; details: other: 60° C., pH 8.0
Method: as §1, §2

[4] = substrate: c1ccc2[nH]ccc2c1; experiment: Tryptophan formation from L-serine and indole, kinetics of TmTrpB^T292S; type: biochemical, Thermotoga maritima; details: other: 75° C., pH 8.0
Method: (§3) Kinetics and UV-Vis Spectroscopy. Data were collected between 550 and 250 nm on a UV1800 Shimadzu spectrophotometer (Shimadzu) using 0.25-20 μM of enzyme in 200 mM potassium phosphate (pH 8.0) in a quartz cuvette. Samples were incubated at 75° C. for >3 min to ensure a stable temperature was reached. PfTrpB activity (kcat) was measured by monitoring tryptophan formation at 290 nm using Δe290=1.89 mM^−1·cm^−1.
as §2, with “reached.” for “reached. Then, after chilling the cultures on ice for 20 min, induction was conducted by the addition of IPTG to a final concentration of 1 mM. Induced cultures were allowed to grow at 250 rpm and 20° C. for another 20 h. After centrifugation, pelleted cells were frozen and stored at −20° C. until further use.”
(§4) The next homolog, TmTrpB, was examined. […] The variants without the T292S mutation lacked this probative absorbance peak, but the decrease at 428 nm and concomitant increase at 350 nm are consistent with a similar, though less pronounced activation.

[5] = substrate: c1ccc2[nH]ccc2c1; experiment: Tryptophan formation from L-serine and indole, kinetics of TmTrpB^triple; type: biochemical, Thermotoga maritima; details: other: 75° C., pH 8.0
Method: as §3
as §2, with “reached.” for “reached. Then, after chilling the cultures on ice for 20 min, induction was conducted by the addition of IPTG to a final concentration of 1 mM. Induced cultures were allowed to grow at 250 rpm and 20° C. for another 20 h. After centrifugation, pelleted cells were frozen and stored at −20° C. until further use.”
as §4

[6] = substrate: c1ccc2[nH]ccc2c1; experiment: Tryptophan formation from L-serine and indole, kinetics of TmTrpS complex; type: biochemical, Thermotoga maritima; details: other: 75° C., pH 8.0
Method: as §3
as §2, with “mM.” for “mM. Induced cultures were allowed to grow at 250 rpm and 20° C. for another 20 h. After centrifugation, pelleted cells were frozen and stored at −20° C. until further use.”
TmTrpA gene was also obtained from IDT and cloned into pET22(b)+ using Gibson Assembly, but without including the C-terminal His-tag. […] Protein concentrations were determined via the Bradford assay (Bio-Rad).

[7] = substrate: c1ccc2[nH]ccc2c1; experiment: Tryptophan formation from L-serine and indole, kinetics of TmTrpB double mutant; type: biochemical, Thermotoga maritima; details: other: 75° C., pH 8.0
Method: as §3, §2

[8] = substrate: c1ccc2[nH]ccc2c1; experiment: Tryptophan formation from L-serine and indole, kinetics of wild-type TmTrpB; type: biochemical, Thermotoga maritima; details: other: 75° C., pH 8.0

B1: Escherichia coli TrpB variant M149T N171D (Table 6 prints N171T), parent SEQ ID NO: 8, variant SEQ ID NO: 40 (Escherichia coli K-12; M149T/N171D) (protein)
chain: MTTLLNPYFGEFGGMYVPQILMPALRQLEEAFVSAQKDPEFQAQFNDLLKNYAGRPTALTKCQNITAGTNTTLYLKREDLLHGGAHKTNQVLGQALLAKRMGKTEIIAETGAGQHGVASALASALLGLKCRIYMGAKDVERQSPNVFRTRLMGAEVIPVHSGSATLKDACDEALRDWSGSYETAHYMLGTAAGPHPYPTIVREFQRMIGEETKAQILEREGRLPDAVIACVGGGSNAIGMFADFINETNVGLIGVEPGGHGIETGEHGAPLKHGRVGIYFGMKAPMMQTEDGQIEESYSISAGLDFPSVGPQHAYLNSTGRADYVSITDDEALEAFKTLCLHEGIIPALESSHALAHALKMMRENPDKEQLLVVNLSGRGDKDIFTVHDILKARGEILEHHHHHH
B1 was tested, and the Km [1] was 18 µM.

B2: Archaeoglobus fulgidus tryptophan synthase beta-subunit AfTrpB, wild type, SEQ ID NO: 4 (Archaeoglobus fulgidus DSM 4304) (protein)
chain: MRCWLENLSGGRKMKFGEFGGRFVPEVLIPPLEELEKAYDRFKDDEEFKARLEYYLKSYAGRPTPLYFAENLSRELGVKIYLKREDLLHGGAHKINNTIGQALLAKFMGKKRVIAETGAGQHGVATAMAAALLGLEAEIYMGAEDYERQKMNVFRMELLGAKVTAVESGSRTLKDAINEALRDWVESFEHTHYLIGSVVGPHPFPTIVRDFQAVIGKEARRQIIEAEGGMPDAIIACVGGGSNAMGIFHPFLNDDVRLIGVEAGGEGIESGRHSASLTAGSKGVLHGMLSYFLQDEEGMMLDTHSVSAGLDYPGVGPEHAYLKETGRCEYVTVNDEEALRAFKTLSKLEGIIPALESAHAIAYAMKMAEEMQRDDVLVVNLSGRGDKDMDIVRRRLALEHHHHHH
In the case of B2, the Km [2] is reported as 12 µM.

B3: Archaeoglobus fulgidus TrpB variant M156T N178D (Table 6 prints N178T), SEQ ID NO: 24 (Archaeoglobus fulgidus DSM 4304; M156T/N178D) (protein)
chain: B2 chain with M156T, N178D
For B3, the Km [3] was 11 µM.

B4: Thermotoga maritima TrpB variant TmTrpB^T292S, SEQ ID NO: 26 (Thermotoga maritima MSB8; T292S) (protein)
chain: MKGYFGPYGGQYVPEILMPALEELEAAYEEIMKDESFWKEFNDLLRDYAGRPTPLYFARRLSEKYGARIYLKREDLLHTGAHKINNAIGQVLLAKKMGKTRIIAETGAGQHGVATATAAALFGMECVIYMGEEDTIRQKPNVERMKLLGAKVVPVKSGSRTLKDAINEALRDWITNLQTTYYVIGSVVGPHPYPIIVRNFQKVIGEETKKQILEKEGRLPDYIVACVGGGSNAAGIFYPFIDSGVKLIGVEAGGEGLETGKHAASLLKGKIGYLHGSKTFVLQDDWGQVQVSHSVSAGLDYSGVGPEHAYWRETGKVLYDAVTDEEALDAFIELSRLEGIIPALESSHALAYLKKINIKGKVVVVNLSGRGDKDLESVLNHPYVRERIRLEHHHHHH
B4 gave a Km [4] of 25 µM.

B5: Thermotoga maritima TrpB variant TmTrpB^triple (P19G, I69V, T292S), SEQ ID NO: 34 (Thermotoga maritima MSB8; I69V/P19G/T292S) (protein)
chain: B4 chain with P19G, I69V
With B5 the Km [5] was 26 µM.

B6: Thermotoga maritima tryptophan synthase complex TmTrpS (TmTrpA + TmTrpB) (Thermotoga maritima MSB8) (protein)
chain: B4 chain with S292T
In the case of B6, the Km [6] is reported as 44 µM.

B7: Thermotoga maritima TrpB variant M145T N167D (Table 6 prints N167T), SEQ ID NO: 36 (Thermotoga maritima MSB8; M145T/N167D) (protein)
chain: B4 chain with M145T, N167D, S292T
In the case of B7, the Km [7] is reported as 32 µM.

B8: Thermotoga maritima tryptophan synthase beta-subunit TmTrpB, wild type, SEQ ID NO: 6 (Thermotoga maritima MSB8) (protein)
chain: B4 chain with S292T
B8 gave a Km [8] of 33 µM.
